In patent publication US20190218277A1 (Chugai, published 2019) one finds binding result and Kd data, which are given here for 13 molecules.

Assay [1] concerns the target T1, Recombinant soluble E protein (0.8E-His) from DENV-2 (DENV-2, UniProt P14340 281-675).
T1 construct: also called DENV-2 E protein; DV2
The experiment in a line: SPR, Biacore T200. (In general: SPR reads the build-up and loss of mass on a sensor chip optically.)

Assay [2] addresses T2, Recombinant soluble E protein (0.8E-His) from DENV-4 (DENV-4, UniProt P09866 280-674).
T2 construct: also called DENV-4 E protein; DV4
Put plainly: SPR, Biacore T200.

In assay [3] the target is T3, Recombinant soluble E protein (0.8E-His) from DENV-3 (DENV-3, UniProt P27915 281-673).
T3 construct: also called DENV-3 E protein; DV3

The target in assay [4] is T4, Recombinant soluble E protein (0.8E-His) from DENV-1 (DENV-1, UniProt P27909 281-675).
T4 construct: also called DENV-1 E protein; DV1

B1: DG_3CH1000-SG1106/3CL012-SK1 (antibody)
heavy: QVQLVQSGPDVEKPGASVKVSCKASGYTFTSYYMHWVRQAPGQGLEWMGVINPRGGSRRSAQKFQGRITMTRDTSTSTVYMELSSLRSEDTAVYYCARGGRALFYDSYTTPFDGGSWWFDPWGQGSLVTVSSASTKGPSVFPLAPSSKSTSGGTAALGCLVKDYFPEPVTVSWNSGALTSGVHTFPAVLQSSGLYSLSSVVTVPSSSLGTQTYICNVNHKPSNTKVDKRVEPKSCDKTHTCPPCPAPEAAGGPSVFLFPPKPKDTLMISRTPEVTCVVVDVSHEDPEVKFNWYVDGVEVHNAKTKPREEQYNSTYRVVSVLTVLHQDWLNGKEYKCKVSNAALPAPISKTISKAKGQPREPQVYTLPPSREEMTKNQVSLTCLVKGFYPSDIAVEWESNGQPENNYKTTPPVLDSDGSFFLYSKLTVDKSRWQQGNVFSCSVLHEALHAHYTRKELSLSP
light: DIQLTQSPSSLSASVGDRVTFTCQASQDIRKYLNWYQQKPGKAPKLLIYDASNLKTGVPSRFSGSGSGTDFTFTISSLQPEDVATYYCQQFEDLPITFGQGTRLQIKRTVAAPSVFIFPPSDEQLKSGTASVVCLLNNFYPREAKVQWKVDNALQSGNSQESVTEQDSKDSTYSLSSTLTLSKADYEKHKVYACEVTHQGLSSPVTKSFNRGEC
A word on the Kd: it is the equilibrium constant for the complex coming apart. With B1, the binding result in assay [1] and in assay [2] was “binds” in each case. In addition, the figures for the Kd in assay [3] and in assay [4] were 0.000101 nM and 1.91 nM, respectively.

B2: DG_3CH953-SG1106/3CL119-SK1 (antibody)
heavy: QVQLVQSGPDVEKPGASVKVSCKASGYTFTSNYIHWVRQAPGQGLEWMGVINPRGGSRRSAQKFQGRITMTRDTSTSTVYMELSSLRSEDTAVYYCARGGRALFYDSYTTPFDGGSWWFDPWGQGSLVTVSSASTKGPSVFPLAPSSKSTSGGTAALGCLVKDYFPEPVTVSWNSGALTSGVHTFPAVLQSSGLYSLSSVVTVPSSSLGTQTYICNVNHKPSNTKVDKRVEPKSCDKTHTCPPCPAPEAAGGPSVFLFPPKPKDTLMISRTPEVTCVVVDVSHEDPEVKFNWYVDGVEVHNAKTKPREEQYNSTYRVVSVLTVLHQDWLNGKEYKCKVSNAALPAPISKTISKAKGQPREPQVYTLPPSREEMTKNQVSLTCLVKGFYPSDIAVEWESNGQPENNYKTTPPVLDSDGSFFLYSKLTVDKSRWQQGNVFSCSVLHEALHAHYTRKELSLSP
light: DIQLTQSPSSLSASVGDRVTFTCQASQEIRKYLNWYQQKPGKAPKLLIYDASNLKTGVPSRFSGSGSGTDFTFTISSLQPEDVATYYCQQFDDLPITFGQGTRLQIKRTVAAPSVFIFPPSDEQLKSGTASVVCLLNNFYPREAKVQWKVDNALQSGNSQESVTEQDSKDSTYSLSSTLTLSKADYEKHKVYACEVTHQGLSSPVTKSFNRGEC
Take B2: the binding result in assay [1] and in assay [2] was “binds” throughout. Moreover, the Kd turned out to be 0.00217 nM in assay [3] and 1.96 nM in assay [4].

B3: DG_3CH1000-SG1106/3CL119-SK1 (antibody)
heavy: QVQLVQSGPDVEKPGASVKVSCKASGYTFTSYYMHWVRQAPGQGLEWMGVINPRGGSRRSAQKFQGRITMTRDTSTSTVYMELSSLRSEDTAVYYCARGGRALFYDSYTTPFDGGSWWFDPWGQGSLVTVSSASTKGPSVFPLAPSSKSTSGGTAALGCLVKDYFPEPVTVSWNSGALTSGVHTFPAVLQSSGLYSLSSVVTVPSSSLGTQTYICNVNHKPSNTKVDKRVEPKSCDKTHTCPPCPAPEAAGGPSVFLFPPKPKDTLMISRTPEVTCVVVDVSHEDPEVKFNWYVDGVEVHNAKTKPREEQYNSTYRVVSVLTVLHQDWLNGKEYKCKVSNAALPAPISKTISKAKGQPREPQVYTLPPSREEMTKNQVSLTCLVKGFYPSDIAVEWESNGQPENNYKTTPPVLDSDGSFFLYSKLTVDKSRWQQGNVFSCSVLHEALHAHYTRKELSLSP
light: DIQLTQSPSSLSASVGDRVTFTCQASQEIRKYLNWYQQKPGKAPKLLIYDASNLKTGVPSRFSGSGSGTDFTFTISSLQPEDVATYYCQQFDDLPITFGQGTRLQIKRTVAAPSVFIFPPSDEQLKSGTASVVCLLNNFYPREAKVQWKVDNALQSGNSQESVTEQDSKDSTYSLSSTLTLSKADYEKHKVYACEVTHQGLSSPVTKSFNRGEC
For the molecule B3, the binding result in assay [1] and in assay [2] was “binds” in each case. Also, the Kd was found to be 0.00182 nM in assay [3] and 1.91 nM in assay [4].

B4: DG_3CH1047-SG1106/3CL119-SK1 (antibody)
heavy: QVQLVQSGPDVEKPGASVKVSCKASGYTFTSYYMHWVRQAPGQGLEWMGVINPRGGSRRSAQKFQGRITMTRDTSTSTVYMELSSLRSEDTAVYYCARGGEALFYDSYTTPFDGGSWWFDPWGQGSLVTVSSASTKGPSVFPLAPSSKSTSGGTAALGCLVKDYFPEPVTVSWNSGALTSGVHTFPAVLQSSGLYSLSSVVTVPSSSLGTQTYICNVNHKPSNTKVDKRVEPKSCDKTHTCPPCPAPEAAGGPSVFLFPPKPKDTLMISRTPEVTCVVVDVSHEDPEVKFNWYVDGVEVHNAKTKPREEQYNSTYRVVSVLTVLHQDWLNGKEYKCKVSNAALPAPISKTISKAKGQPREPQVYTLPPSREEMTKNQVSLTCLVKGFYPSDIAVEWESNGQPENNYKTTPPVLDSDGSFFLYSKLTVDKSRWQQGNVFSCSVLHEALHAHYTRKELSLSP
light: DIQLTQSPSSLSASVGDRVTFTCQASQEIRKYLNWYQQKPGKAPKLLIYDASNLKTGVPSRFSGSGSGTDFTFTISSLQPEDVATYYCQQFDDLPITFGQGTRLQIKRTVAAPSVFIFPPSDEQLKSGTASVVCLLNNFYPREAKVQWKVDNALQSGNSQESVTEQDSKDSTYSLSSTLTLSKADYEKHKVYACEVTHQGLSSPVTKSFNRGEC
Regarding B4, the binding result in assay [1] and in assay [2] was “binds” in each case. Also, the Kd stood at 0.00436 nM in assay [3] and 2.29 nM in assay [4].

B5: DG_3CH1047-SG1106/3CL012-SK1 (antibody)
heavy: QVQLVQSGPDVEKPGASVKVSCKASGYTFTSYYMHWVRQAPGQGLEWMGVINPRGGSRRSAQKFQGRITMTRDTSTSTVYMELSSLRSEDTAVYYCARGGEALFYDSYTTPFDGGSWWFDPWGQGSLVTVSSASTKGPSVFPLAPSSKSTSGGTAALGCLVKDYFPEPVTVSWNSGALTSGVHTFPAVLQSSGLYSLSSVVTVPSSSLGTQTYICNVNHKPSNTKVDKRVEPKSCDKTHTCPPCPAPEAAGGPSVFLFPPKPKDTLMISRTPEVTCVVVDVSHEDPEVKFNWYVDGVEVHNAKTKPREEQYNSTYRVVSVLTVLHQDWLNGKEYKCKVSNAALPAPISKTISKAKGQPREPQVYTLPPSREEMTKNQVSLTCLVKGFYPSDIAVEWESNGQPENNYKTTPPVLDSDGSFFLYSKLTVDKSRWQQGNVFSCSVLHEALHAHYTRKELSLSP
light: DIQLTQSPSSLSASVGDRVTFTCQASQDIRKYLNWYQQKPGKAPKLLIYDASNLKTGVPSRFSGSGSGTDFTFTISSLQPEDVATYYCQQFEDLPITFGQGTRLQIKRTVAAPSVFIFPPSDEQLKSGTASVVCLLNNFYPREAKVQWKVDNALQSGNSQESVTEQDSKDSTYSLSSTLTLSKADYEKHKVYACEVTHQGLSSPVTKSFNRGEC
Turning to B5, the binding result in assay [1] and in assay [2] was “binds” in each case. Also, the values for the equilibrium dissociation constant (Kd) in assay [3] and in assay [4] were 0.00236 nM and 2.18 nM, respectively.

B6: DG_3CH1049-SG182/3CL012-SK1 (antibody, V domains shown)
VH: QVQLVQSGAEVKKPGASVKVSCKASGYTFTSYYMHWVRQAPGQGLEWMGVINPRGGSRRSAQKFQGRVTMTRDTSTSTVYMELSSLRSEDTAVYYCARGGEALFYDSYTTPFDGGSWWFDPWGQGSLVTVSS
VL: DIQLTQSPSSLSASVGDRVTFTCQASQDIRKYLNWYQQKPGKAPKLLIYDASNLKTGVPSRFSGSGSGTDFTFTISSLQPEDVATYYCQQFEDLPITFGQGTRLQIKR
With B6, the binding result in assay [1] and in assay [2] was “binds” each time. In addition, the Kd in assay [3] is 0.00105 nM; in assay [4], 2.26 nM.

B7: DG_3CH1046-SG182/3CL666-SK1 (antibody, V domains shown)
VH: QVQLVQSGAEVKKPGASVKVSCKASGYTFTSYYMHWVRQAPGQGLEWMGVINPRGGSRRSAQKFQGRVTMTRDTSTSTVYMELSSLRSEDTAVYYCARGGRALFYDSYTTPFDGGSWWFDPWGQGSLVTVSS
VL: DIQLTQSPSSLSASVGDRVTITCQASQEIRKYLNWYQQKPGKAPKLLIYDASNLKTGVPSRFSGSGSGTDFTLTISSLQPEDVATYYCQQFDDLPITFGQGTRLQIKR
As for B7, the binding result in assay [1] and in assay [2] was “binds” in each case. In addition, the results for the Kd in assay [3] and in assay [4] were 0.00047 nM and 1.52 nM, respectively.

B8: DG_3CH1046-SG182/3CL668-SK1 (antibody, V domains shown)
VH: QVQLVQSGAEVKKPGASVKVSCKASGYTFTSYYMHWVRQAPGQGLEWMGVINPRGGSRRSAQKFQGRVTMTRDTSTSTVYMELSSLRSEDTAVYYCARGGRALFYDSYTTPFDGGSWWFDPWGQGSLVTVSS
VL: DIQLTQSPSSLSASVGDRVTITCQASQDIRKYLNWYQQKPGKAPKLLIYDASNLKTGVPSRFSGSGSGTDFTLTISSLQPEDVATYYCQQFEDLPITFGQGTRLQIKR
With B8, the binding result in assay [1] and in assay [2] was “binds” in each case. Moreover, the Kd was 0.000559 nM in assay [3] and 1.56 nM in assay [4].

B9: DG_3CH1049-SG182/3CL633-SK1 (antibody, V domains shown)
VH: QVQLVQSGAEVKKPGASVKVSCKASGYTFTSYYMHWVRQAPGQGLEWMGVINPRGGSRRSAQKFQGRVTMTRDTSTSTVYMELSSLRSEDTAVYYCARGGEALFYDSYTTPFDGGSWWFDPWGQGSLVTVSS
VL: DIQLTQSPSSLSASVGDRVTITCQASQDIRKYLNWYQQKPGKAPKLLIYDASNLKTGVPSRFSGSGSGTDFTLTISSLQPEDVATYYCQQFDDLPITFGQGTRLQIKR
Regarding B9, the binding result in assay [1] and in assay [2] was “binds” throughout. Also, the Kd in assay [3] turned out to be 0.0041 nM; in assay [4], 1.73 nM.

B10: DG_3CH1049-SG182/3CL666-SK1 (antibody, V domains shown)
VH: QVQLVQSGAEVKKPGASVKVSCKASGYTFTSYYMHWVRQAPGQGLEWMGVINPRGGSRRSAQKFQGRVTMTRDTSTSTVYMELSSLRSEDTAVYYCARGGEALFYDSYTTPFDGGSWWFDPWGQGSLVTVSS
VL: DIQLTQSPSSLSASVGDRVTITCQASQEIRKYLNWYQQKPGKAPKLLIYDASNLKTGVPSRFSGSGSGTDFTLTISSLQPEDVATYYCQQFDDLPITFGQGTRLQIKR
Consider B10, for which the binding result in assay [1] and in assay [2] was “binds” throughout. Moreover, the values for the Kd in assay [3] and in assay [4] were 0.00295 nM and 1.72 nM, respectively.

B11: DG_3CH1049-SG182/3CL668-SK1 (antibody, V domains shown)
VH: QVQLVQSGAEVKKPGASVKVSCKASGYTFTSYYMHWVRQAPGQGLEWMGVINPRGGSRRSAQKFQGRVTMTRDTSTSTVYMELSSLRSEDTAVYYCARGGEALFYDSYTTPFDGGSWWFDPWGQGSLVTVSS
VL: DIQLTQSPSSLSASVGDRVTITCQASQDIRKYLNWYQQKPGKAPKLLIYDASNLKTGVPSRFSGSGSGTDFTLTISSLQPEDVATYYCQQFEDLPITFGQGTRLQIKR
In the case of B11, the binding result in assay [1] and in assay [2] was “binds” throughout. The Kd was determined as 0.00155 nM in assay [3] and 1.7 nM in assay [4].

B12: DG_3CH1049-SG182/3CL-SK1 (antibody, V domains shown)
VH: QVQLVQSGAEVKKPGASVKVSCKASGYTFTSYYMHWVRQAPGQGLEWMGVINPRGGSRRSAQKFQGRVTMTRDTSTSTVYMELSSLRSEDTAVYYCARGGEALFYDSYTTPFDGGSWWFDPWGQGSLVTVSS
VL: DIQLTQSPSSLSASVGDRVTFTCQASQDIRKYLNWYQQKPGKAPKLLIYDASNLKTGVPSRFSGSGSGTDFTFTISSLQPEDVATYYCQQFDDLPITFGQGTRLQIKR
As for B12, the binding result in assay [1] and in assay [2] was “binds” in each case. Also, the Kd is 0.00239 nM in assay [3] and 2.14 nM in assay [4].

B13: DG_3CH1049-SG182/3CL119-SK1 (antibody, V domains shown)
VH: QVQLVQSGAEVKKPGASVKVSCKASGYTFTSYYMHWVRQAPGQGLEWMGVINPRGGSRRSAQKFQGRVTMTRDTSTSTVYMELSSLRSEDTAVYYCARGGEALFYDSYTTPFDGGSWWFDPWGQGSLVTVSS
VL: DIQLTQSPSSLSASVGDRVTFTCQASQEIRKYLNWYQQKPGKAPKLLIYDASNLKTGVPSRFSGSGSGTDFTFTISSLQPEDVATYYCQQFDDLPITFGQGTRLQIKR
Regarding B13, the binding result in assay [1] and in assay [2] was “binds” each time. For the same molecule, the values for the Kd in assay [3] and in assay [4] were 0.00509 nM and 1.72 nM, respectively.
